Experimental data from US20100016226A1.
Several values for one entry are separate records, joined by “and”; a condition that tells them apart may be missing. Equal entries are not always repeated. Where no end group is shown, it is not given here. The star is where a group is joined. 125I = [125I]*

Columns and labels:
[1] = target: UAG binding sites on human CAC (circulating angiogenic cell) membranes (human); assay: radioligand binding to frozen-thawed CAC membranes, two cell preparations
[2] = target: UAG binding sites on human CAC (circulating angiogenic cell) membranes (human); assay: saturation radioligand binding on CAC membranes
[3] = target: UAG binding sites on human CAC (circulating angiogenic cell) membranes (human); assay: radioligand binding to CAC membranes; binding without minus binding with 100 nM unlabelled UAG
[4] = target: UAG binding sites on human CAC (circulating angiogenic cell) membranes (human); assay: saturation radioligand binding on CAC membranes, Scatchard analysis
[5] = target: UAG binding sites on human CAC (circulating angiogenic cell) membranes (human); assay: radioligand binding to fresh CAC membranes, two cell preparations

GSSY(125I)LSPEHQRVQQRKESKKPPAKLQPR [[125I-Tyr4]-UAG]
specific binding, frozen-thawed CAC membranes [1]: 0.2 fmol and 0.33 fmol | radioligand concentration at maximal specific binding [2]: 2 nM | specific binding, percent of control value [3]: 75% | Bmax (fmol/mg membrane protein) [4]: 10.7 | Kd [4]: 480 pM | specific binding, fresh CAC membranes [5]: 0.25 fmol and 0.26 fmol
